Experimental data taken from patent publication US20170319711A1.

What was measured:
[1] = biological target: Human 5T4 antigen on cells (human) (UniProt Q13641); test: flow cytometry, A431 cells
[2] = biological target: Human 5T4 antigen on cells (human) (UniProt Q13641); test: flow cytometry, MDAMB468 cells
[3] = biological target: Human 5T4 antigen on cells (human) (UniProt Q13641); test: flow cytometry, PC3mm2 cells

Chain of Human 5T4 antigen on cells (human) (Q13641 32-420 limits assumed): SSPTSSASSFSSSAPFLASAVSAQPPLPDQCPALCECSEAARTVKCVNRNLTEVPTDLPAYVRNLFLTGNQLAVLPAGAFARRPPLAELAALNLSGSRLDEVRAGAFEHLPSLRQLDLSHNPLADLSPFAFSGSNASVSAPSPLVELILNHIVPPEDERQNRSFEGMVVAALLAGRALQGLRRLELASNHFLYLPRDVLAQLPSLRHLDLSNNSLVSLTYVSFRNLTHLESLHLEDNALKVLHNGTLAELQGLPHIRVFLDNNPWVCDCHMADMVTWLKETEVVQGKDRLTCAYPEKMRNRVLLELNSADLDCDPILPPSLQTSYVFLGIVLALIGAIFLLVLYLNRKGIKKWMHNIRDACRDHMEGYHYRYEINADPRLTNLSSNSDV

- Mean Fluorescent Intensity [1]: < 100
- Mean Fluorescent Intensity [2]: < 100
- Mean Fluorescent Intensity [3]: < 100
Substance: IgG control (antibody)
